Experimental data taken from PMC6969876, “NADPH biosensor-based identification of an alcohol dehydrogenase variant with improved catalytic properties caused by a single charge reversal at the protein surface” (AMB Express, 2020).

Target: LbADH^K71E, variant of the NADPH-dependent alcohol dehydrogenase of Lactobacillus brevis, with N-terminal Strep-tag II (Lactobacillus brevis)
Assay: SEC; Superdex 200 increase 10/300 GL, buffer A (50 mM triethanolamine hydrochloride, 1 mM MgCl2, pH 7.0), 0.75 mL/min; apparent native mass from a calibration curve with carbonic anhydrase, bovine serum albumin, alcohol dehydrogenase and beta-amylase; affinity-purified protein loaded

LbADH^K71E, variant of the NADPH-dependent alcohol dehydrogenase of Lactobacillus brevis, with N-terminal Strep-tag II (enzyme)
stoichiometry N: 4
